Results from publication doi:10.1101/2024.09.22.614354 (bioRxiv, 2024).
Numbering of substitutions follows the chain as printed. Numbers in names are those of the source. Where two headings read alike, the source gives them in different places. Where no end group is shown, it is not given here. TMR = tetramethyl rhodamine dye

B1: Rb^P E533K (domain or fragment)
chain: NTIQQLMMILNSASDQPSENLISYFNNCTVNPKESILKRVKDIGYIFKEKFAKAVGQGCVEIGSQRYKLGVRLYYRVMESMLKSEEERLSIQNFSKLLNDNIFHMSLLACALEVVMATYSRSTSQNLDSGTDLSFPWILNVLNLKAFDFYKVIKSFIKAEGNLTREMIKHLERCEHRIMESLAWLSDSPLFDLIKQSKDREGPTDHLESACPLNLPLQNNHTAADMYLSPVRSPKKKGSTTRVNSTANAETQATSAFQTQKPLKSTSLSLFYKKVYRLAYLRLNTLCERLLSEHPELEHIIWTLFQHTLQNEYELMRDRHLDQIMMCSMYGICKVKNIDLKFKIIVTAYKDLPHAVQETFKRVLIKEEEYDSIIVFYNSVFMQRLKTNILQYASTRPPTLSPIPHIPRS
B2: Rb^P S474I (domain or fragment)
chain: B1 chain with S95I, K154E
B3: Rb^P S534R (domain or fragment)
chain: B1 chain with K154E, S155R
B4: Rb^P I703F (domain or fragment)
chain: B1 chain with K154E, I324F
B5: Rb^P K548N (domain or fragment)
chain: B1 chain with K154E, K169N
B6: Rb^P K530I (domain or fragment)
chain: B1 chain with K151I, K154E
B7: Rb^P H555Y (domain or fragment)
chain: B1 chain with K154E, H176Y
B8: TMR-E2F1^TD (peptide of the E2F1 transactivation domain, N-labeled with tetramethyl rhodamine) (peptide)
peptide: {TMR}-GEGIRDLFDCDFGDLTPLD
B9: Rb^P S474R (domain or fragment)
chain: B1 chain with S95R, K154E
B10: Rb^P R656Q (domain or fragment)
chain: B1 chain with K154E, R277Q

Tests used:
Test in all cases: fluorescence polarisation
[1] = target: TMR-E2F1^TD (peptide of the E2F1 transactivation domain, N-labeled with tetramethyl rhodamine)
[2] = target: B8
[3] = target: B8
[4] = target: T1, wild type Rb pocket domain (Rb^P) (human, UniProt P06400 380-788)
T1 sequence: B1 chain with K154E

Rb^P I703F = target: B4
Rb^P M704V = target: T2, Rb^P M704V (human, UniProt P06400 380-788, M704V)
T2 sequence: B1 chain with K154E, M325V

Rb^P E554K = target: T3, Rb^P E554K (human, UniProt P06400 380-788, E554K)
T3 sequence: B1 chain with K154E, E175K

Rb^P S751Y = target: T4, Rb^P S751Y (human, UniProt P06400 380-788, S751Y)
T4 sequence: B1 chain with K154E, S372Y

[5] = target: T1, wild type Rb pocket domain (Rb^P); remark: listed apart in the source
[6] = target: T1, wild type Rb pocket domain (Rb^P); remark: listed apart in the source

Rb^P E544K (from UniProt P06400 380-788) (domain or fragment)
fold weaker binding relative to wild type [1]: 34 fold

B1
fold weaker binding relative to wild type [2]: 59 fold

B2
fold weaker binding relative to wild type [2]: 27 fold

B3
fold weaker binding relative to wild type [2]: 820 fold

B4
fold weaker binding at 37°C than at 25°C [3]: 6 fold | fold weaker binding relative to wild type [3]: 17 fold | fold weaker binding relative to wild type [2]: ~5 fold

B5
fold weaker binding relative to wild type [2]: 10 fold

B6
fold weaker binding relative to wild type [2]: 63 fold

B7
fold weaker binding relative to wild type [2]: 12 fold

B8
Kd [4]: 17 nM | Kd (Rb^P I703F): 94 nM | Kd (Rb^P M704V): 46 nM | Kd (Rb^P E554K): 1740 nM | Kd (Rb^P S751Y): 28 nM | Kd [5]: 22 nM | Kd [6]: 14 nM

B9
fold weaker binding relative to wild type [2]: 27 fold

B10
fold weaker binding relative to wild type [2]: 13 fold
